In patent publication US20230406948A1 (APEXIGEN, published 2023):

Legend:
[1] = target: T1, human CD40 on cells (native CD40 on Ramos cells, human B cells, human monocyte-derived dendritic cells); cell … (human, UniProt P25942 21-193); experiment: cell-based or functional assay
[2] = target: T2, fusion protein of rabbit Fc and 4-1 BB (UniProt Q07011 24-186); experiment: direct ELISA, 1 ug/ml rabbit Fc-4-1BB fusion coated, goat anti-human IgG-HRP
T2 construct: Neither the species nor the order of the parts is stated; not shown: rabbit Fc
T2 sequence (Q07011 24-186): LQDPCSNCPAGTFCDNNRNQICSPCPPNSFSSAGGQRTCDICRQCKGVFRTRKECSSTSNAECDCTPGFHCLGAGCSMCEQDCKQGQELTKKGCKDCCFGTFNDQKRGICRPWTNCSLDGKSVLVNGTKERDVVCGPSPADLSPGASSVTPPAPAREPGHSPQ
Protocol: (§1) Binding selectivity of APX005 was assessed by direct ELISA to a panel of TNFR family proteins. A total of 1 μg/ml of fusion protein of rabbit Fc and CD40, RANK, TweakR, OX40, DR5 and 4-1 BB were coated on ELISA plates. Bound APX005 was detected using goat anti-human HRP-conjugated IgG.

[3] = target: T3, mouse CD40 (mouse, UniProt P27512 20-193, limits assumed); experiment: direct ELISA according to paragraph 284 (1 ug/ml mouse CD40 coated, goat anti-human IgG-HRP); y axis of the sheet reads MFI
T3 construct: Coated on ELISA plates at 1 ug/ml
T3 sequence (P27512 20-193 limits assumed): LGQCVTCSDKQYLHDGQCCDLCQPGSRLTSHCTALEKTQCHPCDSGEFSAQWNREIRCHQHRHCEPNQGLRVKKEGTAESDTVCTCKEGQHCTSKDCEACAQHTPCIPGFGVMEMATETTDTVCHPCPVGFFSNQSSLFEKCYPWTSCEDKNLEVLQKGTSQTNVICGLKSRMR
Protocol: Cross-reactivity was assessed by direct ELISA. A total of 1 μg/ml of human CD40, monkey CD40 or mouse CD40 was coated on ELISA plates followed by incubation with 1 μg/ml of APX005 or control IgG1. Antibodies bound to CD40 were detected using goat anti-human IgG conjugated with HRP. APX005 clearly crossreacts with monkey CD40 but not mouse CD40. (FIG. 11A)

[4] = target: T4, fusion protein of rabbit Fc and RANK (UniProt Q9Y6Q6 30-212, limits assumed); experiment: direct ELISA, 1 ug/ml rabbit Fc-RANK fusion coated, goat anti-human IgG-HRP
T4 construct: Neither the species nor the order of the parts is stated; not shown: rabbit Fc
T4 sequence (looked up): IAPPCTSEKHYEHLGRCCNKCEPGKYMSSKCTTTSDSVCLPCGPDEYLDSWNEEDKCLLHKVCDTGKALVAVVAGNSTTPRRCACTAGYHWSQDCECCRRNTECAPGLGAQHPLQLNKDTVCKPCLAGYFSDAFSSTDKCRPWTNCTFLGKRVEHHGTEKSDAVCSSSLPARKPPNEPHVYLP
Protocol: as §1

[5] = target: T5, human CD40 (human, UniProt P25942 21-193); experiment: method not stated
T5 construct: also called immobilized human CD40
T5 sequence (P25942 21-193 limits assumed): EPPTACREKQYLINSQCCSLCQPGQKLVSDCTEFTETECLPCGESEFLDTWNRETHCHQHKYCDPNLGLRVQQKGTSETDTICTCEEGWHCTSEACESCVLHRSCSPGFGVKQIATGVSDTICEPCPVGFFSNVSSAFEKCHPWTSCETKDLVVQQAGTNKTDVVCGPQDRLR

[6] = target: T6, CD40 peptide, residues 125-144 of human CD40 (125PCPVGFFSNVSSAFEKCHPW144) (human); experiment: PEPSCAN-based ELISA on solid-phase peptides
T6 construct: It is the unmutated control peptide of the mutagenesis set
T6 peptide: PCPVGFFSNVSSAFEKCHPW
Protocol: The binding of antibody to each of the synthesized peptides was tested in a PEPSCAN-based ELISA. The peptide arrays were incubated with primary antibody solution (overnight at 4° C.). After washing, the peptide arrays were incubated with a 1/1000 dilution of an antibody peroxidase conjugate (SBA, cat.nr.2010-05) for one hour at 25° C. After washing, the peroxidase substrate 2,2′-azino-di-3-ethylbenzthiazoline sulfonate (ABTS) and 2 microliters/milliliter of 3 percent H₂O₂ were added. After one hour, the color development was measured. The color development was quantified with a charge coupled device (CCD)—camera and an image processing system.

[7] = target: T1, human CD40 on cells (native CD40 on …); experiment: FACS on Ramos cells, 4 h at 37 C, Alexa 488 goat anti-human IgG
Protocol: In order to assess the target mediated-internalization of APX005 for evaluating its impact on ADCC activity, Ramos cells were incubated with APX005 for 4 h at 37° C., a temperature permissive for internalization, or at 4° C. for 30 minutes, a temperature at which internalization is minimized. Cells were washed with staining buffer, followed by incubation with Alexa 488 labeled goat anti-human IgG for an additional 30 minutes at 4° C. FACS analysis was performed to examine the level of APX005 on the cell surface.

[8] = target: T7, CD40-Fc protein (Homo sapiens (Human), UniProt P25942 21-193); experiment: ELISA, plates coated with CD40-Fc protein, OD405nm
T7 construct: not shown: Fc
T7 sequence (P25942 21-193 limits assumed): as the sequence (P25942 21-193 limits assumed) above
Excerpt: In order to assess the ability of the APX005 […] mutant to bind to CD40, APX005 S267E heavy chain and light chain plasmids were purified from transformed bacteria and transfected into 293-6E cell. Four days after transfection, antibody-containing culture supernatants were collected and tested for binding to CD40 using ELISA (ELISA plates coated with CD40-Fc protein).

[9] = target: T1, human CD40 on cells (native CD40 on …); experiment: FACS on live Ramos cells, goat anti-human IgG (H+L) PE
Protocol: (§2) In another experiment, the ability of the CD40 antibodies to bind to native CD40 protein was determined by FACS analysis with live Ramos cells. Ramos cells were harvested and blocked with 1.5 ml blocking buffer (0.1% BSA/PBS) for 30 minutes. Antibodies at various concentrations were added to cells and incubated for 1 hour. After washing, 50 ul Goat-anti-human IgG (H+L) PE antibody at 1:1000 dilution in blocking solution was added and incubated for 30 minutes. Cells were then washed with PBS and were re-suspended with […] and analyzed by FACS. The antibodies tested were the 19-21 rabbit anti-CD40 agonist antibody, SGN-40 developed by Seattle Genetics and CP870893 from Pfizer.

[10] = target: T1, human CD40 on cells (native CD40 on …); experiment: FACS on live Ramos cells, goat anti-human IgG PE
Protocol: as §2

[11] = target: T8, fusion protein of rabbit Fc and DR5 (UniProt O14763 56-182, limits assumed); experiment: direct ELISA, 1 ug/ml rabbit Fc-DR5 fusion coated, goat anti-human IgG-HRP
T8 construct: Neither the species nor the order of the parts is stated; not shown: rabbit Fc
T8 sequence (O14763 56-182 limits assumed): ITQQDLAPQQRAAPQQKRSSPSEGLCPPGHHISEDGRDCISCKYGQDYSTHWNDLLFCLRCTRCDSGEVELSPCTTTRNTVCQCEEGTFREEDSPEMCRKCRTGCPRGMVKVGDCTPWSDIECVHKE
Protocol: as §1

[12] = target: T9, fusion protein of rabbit Fc and TweakR (UniProt Q9NP84 28-80, limits assumed); experiment: direct ELISA, 1 ug/ml rabbit Fc-TweakR fusion coated, goat anti-human IgG-HRP
T9 construct: Neither the species nor the order of the parts is stated; not shown: rabbit Fc
Protocol: as §1

T1 sequence (P25942 21-193): as the sequence (P25942 21-193 limits assumed) above

EC50 (ng/ml), CD40 agonist activity: up-regulation of CD86 on human B cells [1]: 24.4 ng/mL
binding result [2]: no binding
binding result [3]: no binding
binding result [4]: no binding
Kd [5]: 960 pM
binding result [6]: binds
EC50 (read off the curve) [7]: ~0.05 µg/mL
EC50 [8]: 0.0563 µg/mL
EC50 [9]: 0.023 µg/mL
fold higher affinity than CP870893 [10]: 6 fold
binding result [11]: no binding
binding result [12]: no binding
B1: APX005, humanized version of the R-8 rabbit anti-CD40 antibody (antibody, IgG1, V domains shown)
VH: QVQLVESGGGVVQPGRSLRLSCAASGFSFSSTYVCWVRQAPGKGLEWIACIYTGDGTNYSASWAKGRFTISKDSSKNTVYLQMNSLRAEDTAVYFCARPDITYGFAINFWGPGTLVTVSS
VL: DIQMTQSPSSLSASVGDRVTIKCQASQSISSRLAWYQQKPGKPPKLLIYRASTLASGVPSRFSGSGSGTDFTLTISSLQPEDVATYYCQCTGYGISWPIGGGTKVEIK
notes: also called humanized R-8; APX005 wild type
